± gives the standard deviation of the averaged measurements.
Tested on: Saccharomyces cerevisiae
Assay: protein stability index of tFT-peptide fusion (C-terminal peptide) (PSI (0-1 scale)); higher = more stable (slower turnover)
Settings: temperature: 30 C
Description: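 MPS profiling in S. cerevisiae of the yeast C-terminome library: the last 12 aa of each annotated ORF are fused to the C-terminus of a sfGFP-mCherry timer, after a GGGS linker. Cells are FACS-sorted into 8 mCherry/sfGFP bins and deep-sequenced. PSI runs from 0 (unstable) to 1 (stable); wild type and das1Δ backgrounds, two technical replicates each.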

[1] = genetic background: das1 deletion

Sequence	protein stability index [1]	protein stability index (genetic background: wild type)
LIVSFFYKRNAL [IQG1 C-terminal 12 aa]	0.667 ± 0.018	0.584 ± 0.015
HQKTKTLASLSI [NUP49 C-terminal 12 aa]	0.707 ± 0.014	0.631 ± 0.0093
DDGIATYNNTQG [KNS1 C-terminal 12 aa]	0.693 ± 0.03	0.72 ± 0.027
MTGTCFMTDLAP [YKL097C C-terminal 12 aa]	0.721 ± 0.024	0.695 ± 0.021
AREAVVRAGFDS [YIH1 C-terminal 12 aa]	0.729 ± 0.01	0.745 ± 0.071
VDKLAGVRVLPV [GOT1 C-terminal 12 aa]	0.67 ± 0.01	0.704 ± 0.019
ESRLFISDGAVF [MON1 C-terminal 12 aa]	0.696 ± 0.0082	0.713 ± 0.041
EIGGLLLQSFYN [YPL119C-A C-terminal 12 aa]	0.687 ± 0.039	0.7378 ± 0.0018
NQRSFNDKSKRD [CAX4 C-terminal 12 aa]	0.692 ± 0.009	0.6901 ± 0.0064
NKKPKNKKKGRK [SRP72 C-terminal 12 aa]	0.6842 ± 0.005	0.646 ± 0.0076
TNQPVNENNDLK [SNF3 C-terminal 12 aa]	0.667 ± 0.013	0.629 ± 0.0078
DILSQIIESCWV [YNL174W C-terminal 12 aa]	0.654 ± 0.0069	0.705 ± 0.083
VVEKVSSITNRN [SRF1 C-terminal 12 aa]	0.6869 ± 0.0056	0.669 ± 0.065
SKRVYSICHYEF [ABM1 C-terminal 12 aa]	0.693 ± 0.018	0.695 ± 0.012
WSPLHAAKRHRI [MRPL51 C-terminal 12 aa]	0.692 ± 0.014	0.695 ± 0.02
PLGEVDLNSFKN [YHP1 C-terminal 12 aa]	0.691 ± 0.019	0.682 ± 0.034
DGKIKIWKISRN [GID7 C-terminal 12 aa]	0.701 ± 0.021	0.711 ± 0.086
ITLAELDVGDSE [CAF130 C-terminal 12 aa]	0.703 ± 0.03	0.7119 ± 0.0027
NVGVIRPLLDLQ [YGR069W C-terminal 12 aa]	0.743 ± 0.026	0.729 ± 0.015
GKYNIKVKLNFI [VAR1 C-terminal 12 aa]	0.704 ± 0.027	0.69 ± 0.096
EAVKNDDIQIFG [BFR2 C-terminal 12 aa]	0.6921 ± 0.0018	0.722 ± 0.031

Sequence	protein stability index [1]	protein stability index (genetic background: wild type)
AFGNGFNSSIRW [NRP1 C-terminal 12 aa]	0.71 ± 0.012	0.68 ± 0.0089
EEHHFYREHIFT [OCA4 C-terminal 12 aa]	0.7231 ± 0.0018	0.7118 ± 0.0058
FEHFHCVLDQIL [YDR203W C-terminal 12 aa]	0.7056 ± 0.0043	0.6954 ± 0.0031
DSDLFFVAEAIS [YIL032C C-terminal 12 aa]	0.7373 ± 0.0022	0.703 ± 0.022
DITYDDYKSIDF [SUT1 C-terminal 12 aa]	0.694 ± 0.024	0.703 ± 0.095
NYRLEEQDVLTW [LYS14 C-terminal 12 aa]	0.721 ± 0.037	0.693 ± 0.058
SQTKSKQTLFTI [YPR142C C-terminal 12 aa]	0.722 ± 0.021	0.695 ± 0.038
SEEEEEEEWKGF [RRP1 C-terminal 12 aa]	0.68 ± 0.011	0.673 ± 0.033
RNWLGFCTKYEL [ATG15 C-terminal 12 aa]	0.741 ± 0.021	0.735 ± 0.047
KKKSRMFSFRKS [UBP13 C-terminal 12 aa]	0.702 ± 0.011	0.709 ± 0.048
VIASDESSHLSY [YHR127W C-terminal 12 aa]	0.709 ± 0.017	0.699 ± 0.024
LARLKTCVLLIN [YML122C C-terminal 12 aa]	0.544 ± 0.017	0.154 ± 0.0076
NMLFICLNVPHY [YGL114W C-terminal 12 aa]	0.6561 ± 0.0045	0.632 ± 0.007
RLGASNSSNNDA [SLY1 C-terminal 12 aa]	0.702 ± 0.022	0.68 ± 0.018
NSIVKQFKEIFK [AIM41 C-terminal 12 aa]	0.709 ± 0.028	0.67 ± 0.0096
DMLYDELMKTME [KSS1 C-terminal 12 aa]	0.7032 ± 0.00096	0.666 ± 0.022
NWVRYSSIYYQL [YDR194W-A C-terminal 12 aa]	0.695 ± 0.013	0.14 ± 0.011
RRIIESINKSQG [HAT1 C-terminal 12 aa]	0.659 ± 0.012	0.6752 ± 0.0052
AATAKGKGKKKK [RSM27 C-terminal 12 aa]	0.6993 ± 0.005	0.64475 ± 0.00021
DGYPKDNEDIDP [MAL13 C-terminal 12 aa]	0.70018 ± 0.0004	0.708 ± 0.043
KAKSRREGTTRT [STU2 C-terminal 12 aa]	0.7121 ± 0.0033	0.694 ± 0.013

Sequence	protein stability index [1]	protein stability index (genetic background: wild type)
NTLRISTVGQEF [PYK2 C-terminal 12 aa]	0.7106 ± 0.0029	0.707 ± 0.0074
NLVASKQLSTYK [RAV2 C-terminal 12 aa]	0.694 ± 0.0082	0.641 ± 0.031
FKLKDEYLLIDD [SAS2 C-terminal 12 aa]	0.69 ± 0.016	0.666 ± 0.031
NNIKWYLHWKFI [VPR1 C-terminal 12 aa]	0.684 ± 0.033	0.168 ± 0.019
VKSDSGSSCTIM [RHO3 C-terminal 12 aa]	0.721 ± 0.011	0.711 ± 0.023
TFTLAVTPYPAF [YLL066W-B C-terminal 12 aa]	0.715 ± 0.013	0.6847 ± 0.0036
ELWYKSFGPHDE [APC1 C-terminal 12 aa]	0.7 ± 0.027	0.7187 ± 0.0068
SFWPHVAGELEY [INM2 C-terminal 12 aa]	0.72 ± 0.014	0.693 ± 0.04
GFKGFSNKRVKG [MSS18 C-terminal 12 aa]	0.689 ± 0.015	0.6964 ± 0.0036
PTPKALTNEKTH [MGR1 C-terminal 12 aa]	0.687 ± 0.017	0.664 ± 0.015
ATPPYQVFKQQL [FMN1 C-terminal 12 aa]	0.698 ± 0.071	0.668 ± 0.028
SSSEQITSSITS [YAR062W C-terminal 12 aa]	0.71 ± 0.025	0.67 ± 0.008
HEVQNAEQEVAQ [MAK16 C-terminal 12 aa]	0.673 ± 0.0074	0.681 ± 0.034
QIAGRYVVDTSK [ADH2 C-terminal 12 aa]	0.6869 ± 0.0057	0.6522 ± 0.0027
LSVHPLKPCDPN [INP52 C-terminal 12 aa]	0.684 ± 0.0054	0.661 ± 0.042
EEFINKLVKAMN [RPL7B C-terminal 12 aa]	0.649 ± 0.012	0.6163 ± 0.0019
ATICSVAFVKQN [EFM4 C-terminal 12 aa]	0.6241 ± 0.0034	0.224 ± 0.011
SEYRRKQQEKKD [YPI1 C-terminal 12 aa]	0.722 ± 0.019	0.688 ± 0.023
EDADNDNDYDHE [SAP155 C-terminal 12 aa]	0.677 ± 0.035	0.682 ± 0.0061
KKPFDKKPKFNI [YKU70 C-terminal 12 aa]	0.727 ± 0.024	0.686 ± 0.017
IMDKLRAMKNRM [GLO2 C-terminal 12 aa]	0.689 ± 0.053	0.663 ± 0.032

Sequence	protein stability index [1]	protein stability index (genetic background: wild type)
ERYTSIESEIVV [APE4 C-terminal 12 aa]	0.6735 ± 0.0063	0.673 ± 0.023
EETEKKLKNLKL [YRB30 C-terminal 12 aa]	0.703 ± 0.029	0.684 ± 0.037
LSEKIYDAFGKL [MUS81 C-terminal 12 aa]	0.723 ± 0.015	0.7271 ± 0.0047
GYIVGVAALLFL [ANS1 C-terminal 12 aa]	0.428 ± 0.011	0.4532 ± 0.004
GWDLRFEEDPSA [TRP5 C-terminal 12 aa]	0.731 ± 0.018	0.6905 ± 0.0042
ESSSPSQLQHEA [PHO84 C-terminal 12 aa]	0.6938 ± 0.006	0.682 ± 0.024
YNKICSLASRVI [MRPL38 C-terminal 12 aa]	0.669 ± 0.0074	0.673 ± 0.017
SSNTVYDNILVT [YDR034C-A C-terminal 12 aa]	0.721 ± 0.037	0.724 ± 0.028
TPHNHNQNQHTN [RSF1 C-terminal 12 aa]	0.72 ± 0.029	0.706 ± 0.03
SQTQAGSAYYTK [YOR268C C-terminal 12 aa]	0.699 ± 0.026	0.688 ± 0.025
CGGRPQYGVMFA [YDR249C C-terminal 12 aa]	0.6887 ± 0.0013	0.702 ± 0.023
PIRTPDAKKPKI [BUR2 C-terminal 12 aa]	0.715 ± 0.013	0.8 ± 0.13
KVLACYEEIDDY [UBC11 C-terminal 12 aa]	0.679 ± 0.0098	0.712 ± 0.059
GVYMELVKVLFG [YLR177W C-terminal 12 aa]	0.607 ± 0.015	0.631 ± 0.013
KKKNKNKGKKKR [SRP21 C-terminal 12 aa]	0.6857 ± 0.006	0.719 ± 0.048
NIEKGVNFVASK [MDH1 C-terminal 12 aa]	0.6837 ± 0.0049	0.677 ± 0.052
FGRKLKKIFGRK [SEG2 C-terminal 12 aa]	0.675 ± 0.035	0.6421 ± 0.0063
ELKINNDGRLVN [SEC66 C-terminal 12 aa]	0.7137 ± 0.0053	0.714 ± 0.074
DDKFRRSYDVKK [ERG13 C-terminal 12 aa]	0.731 ± 0.026	0.753 ± 0.12

Reference: the supplement of paper PMC10724198
